Data on three substances can be found in article PMC6430831.

The target in one test is IRF5 (UniProt Q13568). The test can be described thus: anti-GEF-H1 co-IP, IRF5 blot. The following applies: reference: wild type; sites S886.
The next test addresses IKKε (UniProt Q14164). Nature of the test: anti-GEF-H1 co-IP, IKKε blot. The following applies: sites S886.

As to GEF-H1 (from UniProt Q92974) S886A, the “binding against the reference” value with IRF5 and with IKKε (reference: wild type) was “stronger” each time.
Regarding “GEF-H1 (from UniProt Q92974) S324A/S886A”, the “binding against the reference” value in the test with IKKε (reference: S324A) is given as “stronger”.
For the substance “GEF-H1 (from UniProt Q92974) S399A/S886A”, in the test with IKKε (reference: S399A), the “binding against the reference” value is on record as “gained”.
